From publication PMC4012331 (Biochimica et biophysica acta, 2013)

Experiments:
[1] = biological target: T1, flavodoxin (Fld); apo-Fld (Escherichia coli, UniProt P61949); experiment: isothermal titration calorimetry; assay type: binding
T1 sequence (P61949 2-176): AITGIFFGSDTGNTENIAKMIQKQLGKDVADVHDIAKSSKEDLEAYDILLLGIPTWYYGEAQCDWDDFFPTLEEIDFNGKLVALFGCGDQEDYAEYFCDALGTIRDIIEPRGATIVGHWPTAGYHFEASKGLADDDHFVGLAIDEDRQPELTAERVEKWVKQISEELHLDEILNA

[2] = biological target: NADP+-dependent flavodoxin oxidoreductase (FNR), Escherichia coli (E. coli) (UniProt P28861); experiment: SPR
[3] = biological target: pyruvate formate-lyase activating enzyme (PFL-AE), Escherichia coli (Escherichia coli) (UniProt P0A9N6); experiment: SPR
pyruvate formate-lyase activating enzyme (PFL-AE), Escherichia coli (Escherichia coli), sequence (P0A9N6 2-246): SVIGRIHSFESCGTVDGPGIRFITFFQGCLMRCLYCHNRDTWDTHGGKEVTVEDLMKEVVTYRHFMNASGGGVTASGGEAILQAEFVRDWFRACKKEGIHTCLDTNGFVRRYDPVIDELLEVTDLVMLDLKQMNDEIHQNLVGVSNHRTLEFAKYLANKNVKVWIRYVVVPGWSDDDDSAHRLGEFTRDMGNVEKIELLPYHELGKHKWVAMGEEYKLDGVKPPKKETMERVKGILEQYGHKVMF

NADP+-dependent flavodoxin oxidoreductase (FNR), Escherichia coli (E. coli), sequence (P28861 whole entry): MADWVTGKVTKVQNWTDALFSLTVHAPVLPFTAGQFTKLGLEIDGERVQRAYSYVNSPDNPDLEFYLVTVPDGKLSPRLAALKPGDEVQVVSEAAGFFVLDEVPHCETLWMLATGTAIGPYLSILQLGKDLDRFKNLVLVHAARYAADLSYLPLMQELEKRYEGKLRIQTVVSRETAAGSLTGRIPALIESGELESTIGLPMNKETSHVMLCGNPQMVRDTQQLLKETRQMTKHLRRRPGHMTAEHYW

Row | Compound | Kd [1] | Kd [2] | Kd [3]
1 | Cc1cc2nc3c(=O)[nH]c(=O)nc-3n(C[C@H](O)[C@H](O)[C@H](O)COP(=O)(O)O)c2cc1C [FMN] | 0.0056 ± 0.0012 µM |  | 
2 | holo-flavodoxin (Fld with bound FMN cofactor), Escherichia coli (from UniProt P61949 2-176) (natural protein) |  | 3.7 µM | 23.3 µM
